Read-outs that look alike come from different tables or passages of the source.
Legend:
GFP-RalA [1] = biological target: GFP-RalA (UniProt P11233); assay: pull-down
[2] = biological target: angiomotin (GFP-fused bait) (UniProt Q4VCS5); assay: pull-down
GFP-RalB [3] = biological target: GFP-RalB (UniProt P11234); assay: pull-down
GFP-RalA [4] = biological target: GFP-RalA (UniProt P11233); assay: pull-down; remark: listed apart in the source
GFP-RalB [5] = biological target: GFP-RalB (UniProt P11234); assay: pull-down; remark: listed apart in the source
mCherry-RalB = mCherry-RalB (UniProt P11234); assay: co-IP

Sequence of UniProt P11233 (P11233 whole entry, the tested form may be a part): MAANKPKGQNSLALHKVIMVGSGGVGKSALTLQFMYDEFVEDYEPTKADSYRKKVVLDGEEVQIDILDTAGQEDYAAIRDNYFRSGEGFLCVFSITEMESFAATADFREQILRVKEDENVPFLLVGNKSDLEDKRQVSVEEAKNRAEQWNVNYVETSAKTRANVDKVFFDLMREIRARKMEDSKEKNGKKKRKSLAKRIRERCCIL
Sequence of UniProt Q4VCS5 (Q4VCS5 whole entry, the tested form may be a part): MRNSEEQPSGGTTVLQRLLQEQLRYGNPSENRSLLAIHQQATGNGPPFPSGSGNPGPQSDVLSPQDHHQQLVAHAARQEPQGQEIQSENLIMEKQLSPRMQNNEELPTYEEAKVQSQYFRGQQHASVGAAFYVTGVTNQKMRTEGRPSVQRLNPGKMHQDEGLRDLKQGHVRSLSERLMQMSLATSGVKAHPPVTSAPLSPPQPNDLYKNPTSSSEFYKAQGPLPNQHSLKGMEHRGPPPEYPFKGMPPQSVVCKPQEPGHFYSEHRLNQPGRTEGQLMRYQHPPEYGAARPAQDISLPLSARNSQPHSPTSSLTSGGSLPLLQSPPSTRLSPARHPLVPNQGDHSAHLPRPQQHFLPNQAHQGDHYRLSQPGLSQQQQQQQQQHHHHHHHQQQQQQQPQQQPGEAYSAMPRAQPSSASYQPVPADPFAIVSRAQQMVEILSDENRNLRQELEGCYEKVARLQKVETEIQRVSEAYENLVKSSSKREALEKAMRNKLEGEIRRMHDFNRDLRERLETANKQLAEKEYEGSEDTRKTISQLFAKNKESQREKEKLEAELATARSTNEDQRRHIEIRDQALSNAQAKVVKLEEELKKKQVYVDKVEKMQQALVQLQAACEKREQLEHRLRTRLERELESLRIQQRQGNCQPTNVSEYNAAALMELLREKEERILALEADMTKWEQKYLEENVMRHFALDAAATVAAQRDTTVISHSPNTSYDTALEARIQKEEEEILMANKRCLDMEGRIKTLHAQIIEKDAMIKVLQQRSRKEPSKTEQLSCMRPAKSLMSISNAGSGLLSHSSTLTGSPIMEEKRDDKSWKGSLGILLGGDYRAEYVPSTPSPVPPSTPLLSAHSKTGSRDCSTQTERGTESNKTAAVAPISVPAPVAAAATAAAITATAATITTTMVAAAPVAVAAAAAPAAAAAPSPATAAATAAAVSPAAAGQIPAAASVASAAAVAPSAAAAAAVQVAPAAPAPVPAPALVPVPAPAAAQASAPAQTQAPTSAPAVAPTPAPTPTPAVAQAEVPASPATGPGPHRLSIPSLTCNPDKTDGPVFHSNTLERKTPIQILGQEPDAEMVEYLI

fold binding over the GFP control (GFP-RalA [1])	fold binding over the GFP control [2]	fold binding over the GFP control (GFP-RalB [3])	fold binding over the GFP control (GFP-RalA [4])	fold binding over the GFP control (GFP-RalB [5])	Substance	percent reduction of RalB binding to Exo84 (mCherry-RalB)	percent reduction of RalB binding to Sec5 (mCherry-RalB)
7 fold	> 65 fold	7 fold	> 50 fold	> 50 fold	Merlin-NanoLuc (from UniProt P35240 1-595) (natural protein)	–	–
–	–	–	–	–	Merlin-GFP (wild type) (from UniProt P35240 1-595) (natural protein)	50%	50%
